Assay results from publication PMC11229371, “The activity of CobB1 protein deacetylase contributes to nucleoid compaction in Streptomyces venezuelae spores by increasing HupS affinity for DNA” (Nucleic Acids Research, 2024).

What was measured:
[1] = target: T1, His-HupS acetylated in vitro (+AcP) (Streptomyces venezuelae) (UniProt F2R5C9); assay: BLI; settings: 1 mM Mg2+; lysine-acetylated; BLI: 100 mM Tris-HCl pH 8.0, 200 mM NaCl, 1 mM MgCl2, 0.005% Tween-20, 0.1 mg/ml BSA, 30 C; EMSA: 50 mM Tris-HCl pH 8.0, 150 mM NaCl, 0.02% Tween-20, 10 mM Mg …
T1 sequence: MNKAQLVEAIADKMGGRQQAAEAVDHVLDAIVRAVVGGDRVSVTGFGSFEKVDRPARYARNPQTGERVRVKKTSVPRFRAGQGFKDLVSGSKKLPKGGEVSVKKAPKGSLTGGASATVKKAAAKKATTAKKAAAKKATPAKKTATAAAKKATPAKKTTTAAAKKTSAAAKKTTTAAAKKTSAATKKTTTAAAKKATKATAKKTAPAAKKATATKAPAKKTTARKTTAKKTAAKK

[2] = target: T2, His-HupS (nonacetylated, -AcP) (Streptomyces venezuelae) (UniProt F2R5C9); assay: BLI; settings: 1 mM Mg2+; BLI: 100 mM Tris-HCl pH 8.0, 200 mM NaCl, 1 mM MgCl2, 0.005% Tween-20, 0.1 mg/ml BSA, 30 C; EMSA: 50 mM Tris-HCl pH 8.0, 150 mM NaCl, 0.02% Tween-20, 10 mM Mg …
T2 sequence: T1 sequence

| Substance | Kd [1] | Kd [2] |
| --- | --- | --- |
| one-end biotinylated dsDNA 300 bp | 28.6 nM | 17.4 nM |
| two-ends biotinylated dsDNA 300 bp | 20 nM | 11.3 nM |
